# Assay results from article PMC11906848, “Rational engineering of a thermostable α-oxoamine synthase biocatalyst expands the substrate scope and synthetic applicability” (Communications Chemistry, 2025).
# Residue numbers refer to the chain shown, from its start. In names and notes the source's numbering stands.
# B1: ThAOS (Thermus thermophilus HB8; V78A) (protein)
# chain: MSLDLRARVREELERLKREGLYISPKVLEAPQEPVTRVEGREVVNLASNNYLGFANHPYLKEKARQYLEKWGAGSGAARTIAGTFTYHVELEEALARFKGTESALVLQSGFTANQGVLGALLKEGDVVFSDELNHASIIDGLRLTKATRLVFRHADVAHLEELLKAHDTDGLKLIVTDGVFSMDGDIAPLDKIVPLAKKYKAVVYVDDAHGSGVLGEKGKGTVHHFGFHQDPDVVQVATLSKAWAGIGGYAAGARELKDLLINKARPFLFSTSHPPAVVGALLGALELIEKEPERVERLWENTRYFKRELARLGYDTLGSQTPITPVLFGEAPLAFEASRLLLEEGVFAVGIGFPTVPRGKARIRNIVTAAHTKEMLDKALEAYEKVGKRLGIIR
# notes: recombinant in E. coli BL21(DE3), pET28a, TEV-cleavable N-terminal His6 tag; homodimer; active site includes V79 of the other monomer
# B2: ThAOS (Thermus thermophilus HB8; V78G) (protein)
# chain: B1 chain with A78G
# notes: as for B1
# How the values were obtained:
# [1] = biological target: T1, ThAOS (Thermus thermophilus, UniProt Q5SHZ8); experiment: X-ray crystal structure (crystal soak), […] Å; UV-vis; type: binding; conditions: covalent PLP:L-Pen thiazolidine adduct; carboxylate chelated by Arg366
# T1 construct: gene TTHA1582; recombinant in E. coli BL21(DE3), pET28a, TEV-cleavable N-terminal His6 tag; homodimer; active site includes V79 of the other monomer
# [2] = biological target: T1, ThAOS; experiment: DTNB assay of CoASH release; type: biochemical; conditions: 16 mM L-Aba; 1 mM acetyl-CoA; HEPES pH 7.5; 50 °C
# Target sequence in this assay (Q5SHZ8 whole entry): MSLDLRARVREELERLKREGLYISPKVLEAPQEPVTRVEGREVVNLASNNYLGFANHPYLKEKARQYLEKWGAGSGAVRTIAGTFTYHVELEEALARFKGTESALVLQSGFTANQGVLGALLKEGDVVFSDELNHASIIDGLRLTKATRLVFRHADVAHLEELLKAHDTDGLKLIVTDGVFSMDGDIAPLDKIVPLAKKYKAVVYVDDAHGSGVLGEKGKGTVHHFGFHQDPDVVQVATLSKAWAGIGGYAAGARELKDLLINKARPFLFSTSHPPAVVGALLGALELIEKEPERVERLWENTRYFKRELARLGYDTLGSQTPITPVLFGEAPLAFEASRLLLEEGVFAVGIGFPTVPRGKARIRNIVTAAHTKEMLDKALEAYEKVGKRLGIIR
# [3] = biological target: T1, ThAOS; experiment: UV-vis spectroscopy of purified holoenzyme; type: binding; conditions: covalent; internal aldimine
# Target sequence in this assay (Q5SHZ8 whole entry): as above
# [4] = biological target: T1, ThAOS; experiment: UV-vis titration of PLP spectrum; type: binding; conditions: 0-16 mM; external aldimine and some quinonoid formation
# Target sequence in this assay (Q5SHZ8 whole entry): as above
# [5] = substrate: N[C@@H](CO)C(=O)O; experiment: purified protein; conditions: acetyl-CoA co-substrate, HEPES pH 7.5, 50 °C
# [6] = substrate: C[C@H](N)C(=O)O; experiment: purified protein; conditions: acetyl-CoA co-substrate, HEPES pH 7.5, 50 °C
# [7] = substrate: NCC(=O)O; experiment: DTNB assay of CoASH release; type: biochemical, Thermus thermophilus; conditions: acetyl-CoA co-substrate, HEPES pH 7.5, 50 °C
# Excerpt: (§1) DTNB assay of CoASH release on ThAOS | catalytic efficiency (kcat/KM) for all four original amino acid substrates was improved substantially
# [8] = substrate: CC[C@H](N)C(=O)O; experiment: DTNB assay of CoASH release; type: biochemical, Thermus thermophilus; conditions: acetyl-CoA co-substrate, HEPES pH 7.5, 50 °C
# Excerpt: as §1
# [9] = substrate: NCC(=O)O; experiment: DTNB assay of CoASH release; type: biochemical, Thermus thermophilus; conditions: acetyl-CoA co-substrate, HEPES pH 7.5, 50 °C; remark: listed apart in the source
# [10] = substrate: CC[C@H](N)C(=O)O; experiment: DTNB assay of CoASH release; type: biochemical, Thermus thermophilus; conditions: acetyl-CoA co-substrate, HEPES pH 7.5, 50 °C; remark: listed apart in the source
molecule,measurement,setting,value
"CC(C)(S)[C@H](N)C(=O)O [L-Pen, L-penicillamine]","X-ray crystal structure (crystal soak), 1.5 Å; UV-vis",[1],The structure of ThAOS V79A PLP:L-Pen complex (PDB: 8S1Y)
CC[C@H](N)C(=O)O [L-Aba],DTNB assay of CoASH release,[2],"original set of four amino acid substrates (L-Aba, L-Ala, Gly and L-Ser)"
"Cc1ncc(COP(=O)(O)O)c(C=O)c1O [PLP, pyridoxal 5’-phosphate]",UV-vis spectroscopy of purified holoenzyme,[3],corresponding to the tautomeric forms of the PLP-bound internal aldimines
C[C@H](N)C(=O)O [L-Ala],UV-vis titration of PLP spectrum,[4],L-Ala binding leads to a small amount of PLP: L-Ala quinonoid formation
B1,Km,[5],2520 ± 300 µM
same,kcat,[5],3.81 ± 0.13 s⁻¹
same,Km,[6],1590 ± 250 µM
same,kcat,[6],1.23 ± 0.05 s⁻¹
same,Km,[7],8360 ± 1730 µM
same,kcat,[7],3.89 ± 0.32 s⁻¹
same,Km,[8],3120 ± 350 µM
same,kcat,[8],2.25 ± 0.08 s⁻¹
B2,Km,[5],4280 ± 960 µM
same,kcat,[5],5.74 ± 0.43 s⁻¹
same,Km,[6],2460 ± 50 µM
same,kcat,[6],2.39 ± 0.15 s⁻¹
same,Km,[9],9520 ± 1910 µM
same,kcat,[9],5.12 ± 0.43 s⁻¹
same,Km,[10],830 ± 150 µM
same,kcat,[10],1.09 ± 0.04 s⁻¹
